B1: PCDHGA10 (parent)
chain: FGIEIEVTDINDNAPKFQAENLDV

Variants of: B1
Assay: protein stability index of a GFP-peptide fusion (GPS, HEK-293T) (PSI 1-6); higher = more stable
Conditions: c terminus: a fixed tail appended
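Further: lentivirally expressed fusions sorted by FACS into six bins by GFP to DsRed ratio, PSI derived from sequencing read proportions per bin multiplied by bin number.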

Variant | protein stability index
FGIEIEVTDINENAPKFQAENLDV | 3.13
FGIEIEVTDINGNAPKFQAENLDV | 2.58
FGIEIEVTDININAPKFQAENLDV | 1.84
FGIEIEVTDINFNAPKFQAENLDV | 1.94
FGIEIEVTDINHNAPKFQAENLDV | 2.16
FGIEIEVTDINANAPKFQAENLDV | 2.28
FGIEIEVTDINKNAPKFQAENLDV | 2.98
FGIEIEVTDINCNAPKFQAENLDV | 1.8
FGIEIEVTDFNDNAPKFQAENLDV | 2.4
FGIEIEVTDDNDNAPKFQAENLDV | 4.78
FGIEIEVTDLNDNAPKFQAENLDV | 2.63
FGIEIEVTDQNDNAPKFQAENLDV | 4.05
FGIEIEVTDKNDNAPKFQAENLDV | 4.61
FGIEIEVTDTNDNAPKFQAENLDV | 3.28
FGIEIEVTDCNDNAPKFQAENLDV | 3.4
FGIEIEVTDGNDNAPKFQAENLDV | 3.67
FGIEIEVTDYNDNAPKFQAENLDV | 2.81
FGIEIEVTDSNDNAPKFQAENLDV | 3.91
FGIEIEVTDVNDNAPKFQAENLDV | 3.24
FGIEIEVTDANDNAPKFQAENLDV | 3.61
FGIEIEVTDHNDNAPKFQAENLDV | 4.04
FGIEIEVTDNNDNAPKFQAENLDV | 4.14
FGIEIEVTDENDNAPKFQAENLDV | 4.23
FGIEIEVTDRNDNAPKFQAENLDV | 3.73

Variant | protein stability index
FGIEIEVTDWNDNAPKFQAENLDV | 2.03
FGIEIEVTDMNDNAPKFQAENLDV | 3.28
FGIEIEVTDPNDNAPKFQAENLDV | 3.83
FGIEIEVTDISDNAPKFQAENLDV | 2.84
FGIEIEVTDIQDNAPKFQAENLDV | 2.52
FGIEIEVTDIRDNAPKFQAENLDV | 2.73
FGIEIEVTDITDNAPKFQAENLDV | 2.26
FGIEIEVTDIDDNAPKFQAENLDV | 3.54
FGIEIEVTDIYDNAPKFQAENLDV | 1.76
FGIEIEVTDIGDNAPKFQAENLDV | 2.66
FGIEIEVTDIHDNAPKFQAENLDV | 2.41
FGIEIEVTDICDNAPKFQAENLDV | 2.28
FGIEIEVTDIKDNAPKFQAENLDV | 2.99
FGIEIEVTDILDNAPKFQAENLDV | 1.77
FGIEIEVTDIIDNAPKFQAENLDV | 2.04
FGIEIEVTDIWDNAPKFQAENLDV | 1.96
FGIEIEVTDIFDNAPKFQAENLDV | 1.33
FGIEIEVTDIVDNAPKFQAENLDV | 2.3
FGIEIEVTDIPDNAPKFQAENLDV | 2.73
FGIEIEVTDIADNAPKFQAENLDV | 2.88
FGIEIEVTDIEDNAPKFQAENLDV | 2.94
FGIEIEVTDIMDNAPKFQAENLDV | 2.15
FGIEIEQTDINDNAPKFQAENLDV | 4.8
FGIEIELTDINDNAPKFQAENLDV | 2.45

Variant | protein stability index
FGIEIEKTDINDNAPKFQAENLDV | 4.21
FGIEIEWTDINDNAPKFQAENLDV | 1.78
FGIEIEYTDINDNAPKFQAENLDV | 2.93
FGIEIENTDINDNAPKFQAENLDV | 4.46
FGIEIETTDINDNAPKFQAENLDV | 4.45
FGIEIESTDINDNAPKFQAENLDV | 4.63
FGIEIEITDINDNAPKFQAENLDV | 2.29
FGIEIEPTDINDNAPKFQAENLDV | 4.72
FGIEIEMTDINDNAPKFQAENLDV | 3.18
FGIEIERTDINDNAPKFQAENLDV | 4.14
FGIEIEVWDINDNAPKFQAENLDV | 2.27
FGIEIEVADINDNAPKFQAENLDV | 2.88
FGIEIEVPDINDNAPKFQAENLDV | 3.75
FGIEIEVFDINDNAPKFQAENLDV | 1.68
FGIEIEVSDINDNAPKFQAENLDV | 2.77
FGIEIEVLDINDNAPKFQAENLDV | 1.89
FGIEIEVCDINDNAPKFQAENLDV | 2.48
FGIEIEVRDINDNAPKFQAENLDV | 2.32
FGIEIEVNDINDNAPKFQAENLDV | 3.81
FGIEIEVVDINDNAPKFQAENLDV | 2.08
FGIEIEVYDINDNAPKFQAENLDV | 1.17
FGIEIEVMDINDNAPKFQAENLDV | 2.19
FGIEIEVEDINDNAPKFQAENLDV | 3.32
FGIEIEVKDINDNAPKFQAENLDV | 3.33

Variant | protein stability index
FGIEIEVGDINDNAPKFQAENLDV | 3.27
FGIEIEVQDINDNAPKFQAENLDV | 2.78
FGIEIEVHDINDNAPKFQAENLDV | 2.78
FGIEIEVDDINDNAPKFQAENLDV | 3.79
FGIEIEVIDINDNAPKFQAENLDV | 1.76
FGIEIEVTHINDNAPKFQAENLDV | 1.81
FGIEIEVTCINDNAPKFQAENLDV | 1.95
FGIEIEVTYINDNAPKFQAENLDV | 3.18
FGIEIEVTGINDNAPKFQAENLDV | 2.15
FGIEIEVTQINDNAPKFQAENLDV | 2.15
FGIEIEVTNINDNAPKFQAENLDV | 2.73
FGIEIEVTAINDNAPKFQAENLDV | 1.98
FGIEIEVTIINDNAPKFQAENLDV | 1.32
FGIEIEVTKINDNAPKFQAENLDV | 2.45
FGIEIEVTVINDNAPKFQAENLDV | 2.58
FGIEIEVTPINDNAPKFQAENLDV | 2.53
FGIEIEVTRINDNAPKFQAENLDV | 2.04
FGIEIEVTTINDNAPKFQAENLDV | 1.96
FGIEIEVTMINDNAPKFQAENLDV | 1.96
FGIEIEVTEINDNAPKFQAENLDV | 2.69
FGIEIEVTSINDNAPKFQAENLDV | 1.85
FGIEIEVTFINDNAPKFQAENLDV | 2.69

Source: the supplement of paper PMC10567573
